Laboratory results from US10239925B2, “Peptides and combination of peptides for use in immunotherapy against ovarian cancer and other cancers” (IMMATICS BIOTECHNOLOGIES GMBH, priority 2015, dated 2019).

What follows are substances tested against HLA-A*02:01 (Homo sapiens, UniProt P04439, D140Y/D185E/D98H/E176V/E277Q/G131W/G231S/I119V/I121R/I166T/I218V/L300P/L318F/N151K/N90K/P208A/P217A/Q86G/Q94H/R138H/R169H/T345S) (assay: MHC binding assay (UV-ligand exchange, anti-β2m ELISA, peptide exchange yield)). Conditions: binding to HLA-A*02:01.
Summary of the method: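 Peptide-MHC complexes formed by UV-ligand exchange, cleaving a UV-sensitive placeholder peptide in favour of the test peptide. Exchange yield measured by ELISA: monomers diluted 100-fold onto streptavidin-coated plates, 1 h 37 °C, detected with 2 ug/ml HRP anti-β2m and TMB, absorbance at 450 nm.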
In the case of “28 (QLLDETSAITL; listed as Homo sapiens) [compound 28]”, the “Peptide exchange (MHC class I binding score, peptide exchange yield)” value (from here on “Peptide exchange”) is reported as ““+++” (>50 = +++)”. For “208 (KISPVTFSV; listed as Homo sapiens) [compound 208]”, the “Peptide exchange” value was ““+++” (>50 = +++)”. With “103 (TLAEEVVAL; listed as Homo sapiens) [compound 103]” the “Peptide exchange” value was ““+++” (>50 = +++)”. “123 (NLWDLTDASVV; listed as Homo sapiens) [compound 123]” was tested, and the “Peptide exchange” value was ““+++” (>50 = +++)”. “571 (LLLTTIPQI; listed as Homo sapiens) [compound 571]” was tested, and the “Peptide exchange” value was ““+++” (>50 = +++)”. With “399 (YLFEPLYHV; listed as Homo sapiens) [compound 399]” the “Peptide exchange” value was ““+++” (>50 = +++)”. With “64 (YAAPGGLIGV; listed as Homo sapiens) [compound 64]” the “Peptide exchange” value was ““++” (>20% = ++)”. “301 (FLVEDLVDSL; listed as Homo sapiens) [compound 301]” was tested, and the “Peptide exchange” value was ““+++” (>50 = +++)”. For “222 (NLIENVQRL; listed as Homo sapiens) [compound 222]”, the “Peptide exchange” value was ““++” (>20% = ++)”. “66 (FLDENIGGVAV; listed as Homo sapiens) [compound 66]” was tested, and the “Peptide exchange” value was ““+++” (>50 = +++)”. In the case of “177 (YLLPEEYTSTL; listed as Homo sapiens) [compound 177]”, the “Peptide exchange” value is reported as ““++++” (>75% = ++++)”. With “178 (ALTEIAFVV; listed as Homo sapiens) [compound 178]” the “Peptide exchange” value was ““++++” (>75% = ++++)”. For “361 (ALYELEGTTV; listed as Homo sapiens) [compound 361]”, the “Peptide exchange” value was ““+++” (>50 = +++)”. For “617 (ALMYESEKVGV; listed as Homo sapiens) [compound 617]”, the “Peptide exchange” value was ““+++” (>50 = +++)”. “159 (GLVGNPLPSV; listed as Homo sapiens) [compound 159]” was tested, and the “Peptide exchange” value was ““++++” (>75% = ++++)”. In the case of “169 (NLPEYLPFV; listed as Homo sapiens) [compound 169]”, the “Peptide exchange” value is reported as ““+++” (>50 = +++)”. With “308 (SQYSGQLHEV; listed as Homo sapiens) [compound 308]” the “Peptide exchange” value was ““+++” (>50 = +++)”. With “605 (KLYEAVPQL; listed as Homo sapiens) [compound 605]” the “Peptide exchange” value was ““+++” (>50 = +++)”. For “119 (FLYIGDIVSL; listed as Homo sapiens) [compound 119]”, the “Peptide exchange” value was ““++++” (>75% = ++++)”. In the case of “622 (RLLGEEVVRVLQA; listed as Homo sapiens) [compound 622]”, the “Peptide exchange” value is reported as ““+++” (>50 = +++)”. In the case of “544 (LLWDVPAPSL; listed as Homo sapiens) [compound 544]”, the “Peptide exchange” value is reported as ““+++” (>50 = +++)”. “467 (FLAKDFNFL; listed as Homo sapiens) [compound 467]” was tested, and the “Peptide exchange” value was ““+++” (>50 = +++)”. “249 (LLDGFLVNV; listed as Homo sapiens) [compound 249]” was tested, and the “Peptide exchange” value was ““+++” (>50 = +++)”. “531 (YTLPIASSIRL; listed as Homo sapiens) [compound 531]” was tested, and the “Peptide exchange” value was ““+++” (>50 = +++)”. In the case of “120 (ALLGIPLTLV; listed as Homo sapiens) [compound 120]”, the “Peptide exchange” value is reported as ““+++” (>50 = +++)”. For “243 (LLLNELPSV; listed as Homo sapiens) [compound 243]”, the “Peptide exchange” value was ““+++” (>50 = +++)”. For “262 (LLWGDLIWL; listed as Homo sapiens) [compound 262]”, the “Peptide exchange” value was ““+++” (>50 = +++)”. “205 (SLYPGTETMGL; listed as Homo sapiens) [compound 205]” was tested, and the “Peptide exchange” value was ““+++” (>50 = +++)”. “161 (ALLEGVNTV; listed as Homo sapiens) [compound 161]” was tested, and the “Peptide exchange” value was ““+++” (>50 = +++)”. In the case of “309 (GLFDGVPTTA; listed as Homo sapiens) [compound 309]”, the “Peptide exchange” value is reported as ““+++” (>50 = +++)”. With “195 (GLFADLLPRL; listed as Homo sapiens) [compound 195]” the “Peptide exchange” value was ““+++” (>50 = +++)”. In the case of “304 (MTLGQIYYL; listed as Homo sapiens) [compound 304]”, the “Peptide exchange” value is reported as ““+++” (>50 = +++)”. “234 (ALMEDTGRQML; listed as Homo sapiens) [compound 234]” was tested, and the “Peptide exchange” value was ““++” (>20% = ++)”. For “70 (GLLDYPVGV; listed as Homo sapiens) [compound 70]”, the “Peptide exchange” value was ““+++” (>50 = +++)”. With “385 (SLLEQGLVEA; listed as Homo sapiens) [compound 385]” the “Peptide exchange” value was ““++” (>20% = ++)”. For “256 (FLPPEHTIVYI; listed as Homo sapiens) [compound 256]”, the “Peptide exchange” value was ““+++” (>50 = +++)”. “431 (SLVNVVPKL; listed as Homo sapiens) [compound 431]” was tested, and the “Peptide exchange” value was ““++” (>20% = ++)”. For “380 (TLIEDEIATI; listed as Homo sapiens) [compound 380]”, the “Peptide exchange” value was ““++” (>20% = ++)”. With “13 (YLMDESLNL; listed as Homo sapiens) [compound 13]” the “Peptide exchange” value was ““+++” (>50 = +++)”. “591 (SMAELDIKL; listed as Homo sapiens) [compound 591]” was tested, and the “Peptide exchange” value was ““+++” (>50 = +++)”. In the case of “279 (ALWGGTQPLL; listed as Homo sapiens) [compound 279]”, the “Peptide exchange” value is reported as ““++” (>20% = ++)”. With “473 (AMATESILHFA; listed as Homo sapiens) [compound 473]” the “Peptide exchange” value was ““+++” (>50 = +++)”. For “176 (YLMEGSYNKVFL; listed as Homo sapiens) [compound 176]”, the “Peptide exchange” value was ““++” (>20% = ++)”. “351 (SLIPNLRNV; listed as Homo sapiens) [compound 351]” was tested, and the “Peptide exchange” value was ““+++” (>50 = +++)”. “265 (LLFGGTKTV; listed as Homo sapiens) [compound 265]” was tested, and the “Peptide exchange” value was ““++” (>20% = ++)”. In the case of “407 (YLMDLINFL; listed as Homo sapiens) [compound 407]”, the “Peptide exchange” value is reported as ““+++” (>50 = +++)”. In the case of “101 (ILVGGGALATV; listed as Homo sapiens) [compound 101]”, the “Peptide exchange” value is reported as ““+++” (>50 = +++)”. In the case of “68 (SLMELPRGLFL; listed as Homo sapiens) [compound 68]”, the “Peptide exchange” value is reported as ““++++” (>75% = ++++)”. For “394 (LLAVIGGLVYL; listed as Homo sapiens) [compound 394]”, the “Peptide exchange” value was ““+++” (>50 = +++)”. With “545 (LLADLLHNV; listed as Homo sapiens) [compound 545]” the “Peptide exchange” value was ““+++” (>50 = +++)”. In the case of “335 (YSLSSVVTV; listed as Homo sapiens) [compound 335]”, the “Peptide exchange” value is reported as ““+++” (>50 = +++)”. “124 (ALYETELADA; listed as Homo sapiens) [compound 124]” was tested, and the “Peptide exchange” value was ““++” (>20% = ++)”. “246 (LLWEVVSQL; listed as Homo sapiens) [compound 246]” was tested, and the “Peptide exchange” value was ““+++” (>50 = +++)”. With “327 (GLAPFTEGISFV; listed as Homo sapiens) [compound 327]” the “Peptide exchange” value was ““+++” (>50 = +++)”. In the case of “250 (ALSEEGLLVYL; listed as Homo sapiens) [compound 250]”, the “Peptide exchange” value is reported as ““+++” (>50 = +++)”. For “147 (SLLEAVSFL; listed as Homo sapiens) [compound 147]”, the “Peptide exchange” value was ““+++” (>50 = +++)”. “189 (ALQRKLPYV; listed as Homo sapiens) [compound 189]” was tested, and the “Peptide exchange” value was ““+++” (>50 = +++)”. With “469 (YLASDEITTV; listed as Homo sapiens) [compound 469]” the “Peptide exchange” value was ““+++” (>50 = +++)”. In the case of “526 (RLAEVGQYEQV; listed as Homo sapiens) [compound 526]”, the “Peptide exchange” value is reported as ““++” (>20% = ++)”. In the case of “500 (SLMEDQVLQL; listed as Homo sapiens) [compound 500]”, the “Peptide exchange” value is reported as ““+++” (>50 = +++)”. In the case of “300 (ALLGQTFSL; listed as Homo sapiens) [compound 300]”, the “Peptide exchange” value is reported as ““+++” (>50 = +++)”.
